Patent US20240277868

Tested on: synthetic TNF-derived myristoylated peptide

Question: For “purified recombinant His-tagged wild type SIRT6”, which KmPEP is on record?
Answer: 61.1 µM
